From article PMC10878242 (Journal of Virology, 2024)

How the values were obtained:
Settings in all cases: both partners purified
[1] = target: PCV2-Cap peptide aa 73–87 (Porcine circovirus 2, PCV2b strain SH); test: ELISA; synthetic 15-mer peptides coated (1 µg/well); mAb-1E7 or mAb-3G4 added; detection with goat anti-mouse IgG
[2] = target: PCV2-Cap peptide aa 74–88 (Porcine circovirus 2, PCV2b strain SH); test: as above
[3] = target: PCV2-Cap peptide aa 75–89 (Porcine circovirus 2, PCV2b strain SH); test: as above
[4] = target: T1, recombinant PCV2 capsid protein (PCV2-Cap) (Porcine circovirus 2, strain of …, UniProt D6R1Z5); test: Western blot
T1 construct: also called monomeric PCV2-Cap

[5] = target: PCV2-Cap peptide aa 69–83 (Porcine circovirus 2, PCV2b strain SH); test: ELISA; synthetic 15-mer peptides coated (1 µg/well); mAb-1E7 or mAb-3G4 added; detection with goat anti-mouse IgG

B1: mAb-1E7 (antibody, V domains shown)
VH: QIQLVQSGPELKKPGETVKISCKASGYIFTNYGMNWVKQAPGKGFKWMGWINTYTGEPTYVDDFKGRFAFSLETSASTVYLQINNLKNEDTATYFCARSLENWGQGTTLTVSS
VL: DIVMTQAAFSNPVTLGTSASISCRSSKSLLHSNGITYLYWYLQKPGQSPQLLIYQMSNLASGVPDRFSSSGSGTDFTLRISRVEAEDVGVYYCAQNVELPTFGGGTKLEIK
B1: binds [1]; binds [2]; binds [3].

B2: mAb-3G4 (antibody, V domains shown)
VH: QVTLKESGPGILQPSQTLSLTCSFSGFSLSTSGMVVGWIRQPSGKGLEWLAHIWWDDVKRYNPALKSRLTISKDTSNSQVFLKIASVDTADTATYYCARSPFFAYWGQGTLVTISP
VL: DIQMTQSPSSLSASLGERVSLTCRASQDIGSNLNWLQKRSDGSIKRLIYATSSLDSGVPKRFSGSRSGSDYSLTISSLESEDFVDYYCLQYATSPYTFGGGTKLEIK
B2: binds [4]; binds [5].
